Reference: patent publication US20240390418A1 (MINERVA BIOTECHNOLOGIES, published 2024)
Residue numbers refer to the chain shown, from its start.

T1: N+9/C-9 peptide
T1 peptide: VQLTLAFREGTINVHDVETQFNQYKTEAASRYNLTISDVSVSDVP

T2: C-10 peptide
T2 construct: also called PSMGFR C-10; PSMGFR minus 10 amino acids from the C-terminus
T2 peptide: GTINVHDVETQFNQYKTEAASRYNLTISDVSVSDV

T3: N-10 peptide
T3 construct: also called PSMGFR N-10; PSMGFR minus 10 amino acids from the N-terminus
T3 peptide: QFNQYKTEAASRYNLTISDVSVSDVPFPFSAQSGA

T4: NME7AB (Homo sapiens (Human), UniProt Q9Y5B8 92-376)
T4 construct: NME7A in the text appears to be NME7AB; also called NM23-H7; NME7A
T4 sequence: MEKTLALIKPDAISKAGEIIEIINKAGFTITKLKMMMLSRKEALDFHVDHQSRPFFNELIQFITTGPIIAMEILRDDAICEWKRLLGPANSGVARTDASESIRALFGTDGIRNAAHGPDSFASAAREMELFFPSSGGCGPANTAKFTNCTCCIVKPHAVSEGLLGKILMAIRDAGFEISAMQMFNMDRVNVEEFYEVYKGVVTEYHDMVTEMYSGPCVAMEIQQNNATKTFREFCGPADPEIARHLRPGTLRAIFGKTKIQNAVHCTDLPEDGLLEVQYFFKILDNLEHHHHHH

T5: N-10/C-5 peptide
T5 peptide: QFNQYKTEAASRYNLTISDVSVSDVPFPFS

T6: N-19 peptide
T6 peptide: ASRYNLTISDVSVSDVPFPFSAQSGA

T7: N-26 peptide
T7 peptide: ISDVSVSDVPFPFSAQSGA

T8: N-19/C-5 peptide
T8 peptide: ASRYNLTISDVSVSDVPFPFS

T9: N-30 peptide
T9 peptide: SVSDVPFPFSAQSGA

B1: monoclonal antibody 20A10 (antibody, V domains shown)
VH: EVMLVESGGGLVKPGGSLKLSCAASGFTFSTYAMSWIRQTPEKRLEWVASIGRAGSTYYSDSVKGRFTISRDNVRNILYLQMSSLRSEDTAMYYCARGPIYNDYDEFAYWGQGTLVTVSA
VL: NIMMTQSPSSLAVSAGEKVTMSCKSSQSVLYSSNQKNYLAWYQQKPGQSPKLLIYWASTRESGVPDRFTGSGSGTDFTLTISSVQAEDLAVYYCHQYLSSLTFGAGTKLELK
notes: Raised against PSMGFR; also called MN20A10; anti-PSMGFR antibody 20A10
B2: monoclonal antibody 3C2B1 (antibody, V domains shown)
VH: EVMLVESGGGLVKPGGSLKLSCAASGITFSTYTMSWVRQTPEKRLEWVATISTGGDKTYYSDSVKGRFTISRDNAKNNLYLQMSSLRSEDTALYYCARGTTAMYYYAMDYWGQGTSVTVSS
VL: DIVLTQSPASLAVSLGQRATISCRASKSISTSDYNYIHWYQQKPGQPPKLLIYLASNLESGVPARFSGSGSGTDFTLNIHPVEEEDAATYYCQHSRELPLTFGAGTKLELK
notes: Raised against PSMGFR; also called MN3C2B1; anti-PSMGFR antibody 3C2B1
B3: humanized MNC2 scFv (scFv, V domains shown)
VH: EVQLVESGGGLVKPGGSLRLSCAASGFTFSGYAMSWVRQAPGKGLEWVSTISSGGTYIYYPDSVKGRFTISRDNAKNSLYLQMNSLRAEDTAVYYCARLGGDNYYEYFDVWGKGTTVTVSS
VL: DIVLTQSPASLAVSPGQRATITCRASKSVSTSGYSYMHWYQQKPGQPPKLLIYLASNLESGVPARFSGSGSGTDFTLTINPVEANDTANYYCQHSRELPFTFGGGTKVEIKR
notes: also called huMNC2scFv; huMNC2 scFv
B4: monoclonal antibody B12 (antibody, V domains shown)
VH: QAQLKESGPGLVAPSQSLSITCTVSGFSLTSYGVHWVRQPPGKGLEWLGVIWPGGSTNYNSTLMSRMRIIKDNSKSQVFLKMNSLQIDDTAMYYCARDRTPRVGAWFAYWGQGTLVTVSA
VL: IIVLTQSPASLAVSLGQRATISCRASESVATYGNNFMQWYQQKPGQPPKLLIYLASTLDSGVPARFSGSGSRTDFTLTIDPVEADDAATYYCQQNNEDPPTFGGGTKLEIK
notes: Raised against PSMGFR
B5: monoclonal antibody B2 (antibody, V domains shown)
VH: EVVLVESGGGLVEPGGSLKLSCVASGFAFSTFAMSWIRQTPEKRLEWVAAISNGGGYTYYPDTLKGRFSISRDNAKNTLYLQMSSLRSEDTAVYYCARRYYDLYFDLWGRGTSLIVSS
VL: DILMTQTPLSLPVSLGDQASISCRSSQNIVHSNGNTYLEWYLQKPGQSPKLLIYKVSNRFSGVPDRFSGSGSGTDFTLKISRVEAEDLGVYYCFQDSHVPLTFGAGTRLELK
notes: Raised against PSMGFR
B6: monoclonal antibody B7 (antibody, V domains shown)
VH: EVQVVESGGDLVKPGGSLKLSCAASGFTFSRYGMSWVRQTPDKRLEWVATISSGGTYIYYPDSVKGRFTISRDNAKNTLYLQMSSLKSEDTAMYYCARDNYGSSYDYAMDYWGQGTSVTVSS
VL: B5 VL with I2V, N28T, R108K
notes: Raised against PSMGFR
B7: monoclonal antibody B9 (antibody, V domains shown)
VH: B6 VH
VL: QIVLTQSPAIMSASPGEEVTLTCSASSSVSYMHWFQQRPGTSPKLWIYTTSNLASGVPARFSGSGSGTSYSLTISRMEAEDAATYYCQQRSSYPFTFGSGTKLEIK
notes: Raised against PSMGFR
B8: monoclonal antibody 8C7F3 (antibody, V domains shown)
VH: EVMLVESGGGLVKPGGSLKLSCAASGFTFSTYAMSWVRQTPEKRLEWVAAISNGGGYTYYPDSLKGRFTISRDNAKNTLYLQMSSLRSEDTATYYCARRYYDHYFDYWGQGTALTVSS
VL: B4 VL
notes: Raised against PSMGFR
B9: PSMGFR peptide (peptide)
peptide: GTINVHDVETQFNQYKTEAASRYNLTISDVSVSDVPFPFSAQSGA
notes: also called MUC1* peptide
B10: humanized MNC3 scFv-Fc (Fc fusion)
VH: QVQLVQSGAEVKKPGASVKVSCKASGYTFTDYAMNWVRQAPGQGLEWMGVISTFSGNTNFNQKFKGRVTMTTDTSTSTAYMELRSLRSDDTAVYYCARSDYYGPYFDYWGQGTTLTVSS
VL: DIVMTQTPLSLSVTPGQPASISCRSSQTIVHSNGNTYLEWYLQKPGQSPQLLIYKVSNRFSGVPDRFSGSGSGTDFTLKISRVEAEDVGVYYCFQGSHVPFTFGGGTKVEIKRT
B11: monoclonal antibody 28F9 (antibody, V domains shown)
VH: QVQLQQPGAELVQPGASVKLSCKASGYTFTGYFLYWVKQRPGHGLEWIGGIHPSNGDTDFNEKFKNKATLTVDISSSTAYMQLSSLTSEDSAVYYCTLLIGVYWGQGTTLTVSS
VL: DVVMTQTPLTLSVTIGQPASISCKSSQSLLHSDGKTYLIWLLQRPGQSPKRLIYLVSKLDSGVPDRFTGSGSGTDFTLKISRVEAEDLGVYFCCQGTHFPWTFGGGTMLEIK
notes: Raised against PSMGFR; also called MN28F9; anti-PSMGFR antibody 28F9
B12: monoclonal antibody 18G12 (antibody, V domains shown)
VH: B11 VH with P7S, Q13K, H43Q, H52N, S54D, D57G, T58I, K65R, I74K, V102N
VL: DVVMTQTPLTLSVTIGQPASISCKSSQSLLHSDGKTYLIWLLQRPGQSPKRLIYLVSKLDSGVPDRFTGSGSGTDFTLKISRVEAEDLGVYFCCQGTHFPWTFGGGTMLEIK
notes: Raised against PSMGFR; also called MN18G12; anti-PSMGFR antibody 18G12
B13: monoclonal antibody 17H6 (antibody, V domains shown)
VH: EVKLVESGGGLVQPGGSLRLSCATSGFTFTDYYMSWVRQPPRKALEWLGFIRNKANGYTAEYSASVKGRFTISRDVSQNLLYLQMNILRAEDSATYYCAKDYYGSNPAWFAYWGQGTLVTVSA
VL: B5 VL with N28S, N33S, Y37F, T74I, D96G, L101F, A105S, R108K, L111I
notes: Raised against the N+9/C-9 peptide; also called N+9/C-9 antibody 17H6

What was measured:
N+9/C-9 peptide = target: T1, N+9/C-9 peptide; experiment: ELISA, peptide on plate (FIG. 64)
C-10 peptide [1] = target: T2, C-10 peptide; experiment: ELISA, peptide on plate (FIG. 64)
PSMGFR peptide [2] = target: B9; experiment: peptide ELISA, told in tissue legend
N-10 peptide [3] = target: T3, N-10 peptide; experiment: peptide ELISA, told in tissue legend
C-10 peptide [4] = target: T2, C-10 peptide; experiment: peptide ELISA
PSMGFR peptide [5] = target: B9; experiment: ELISA, PSMGFR peptide on plate (FIG. 5)
Procedure: Humanized MNC2 scFv is then incubated with the surface, washed and detected according to standard methods.

N-10 peptide [6] = target: T3, N-10 peptide; experiment: ELISA, peptide on plate (FIG. 201B)
Procedure: (§1) FIG. 201A-201C show graphs of ELISA assays to determine the binding of another set of antibodies generated by immunizing animals with the PSMGFR peptide. […] F3, B12, B2, B7, B9, 8C7F3 and H11 all bound to the PSMGFR peptide and to the N-10 peptide.
(§2) This same ELISA assay was performed on the antibodies of the invention (FIGS. 64-66 and FIG. 201). Note that only 20A10 exactly matches the binding profile of MNC2 and MNE6. 25E6, 28F9 and 18G12 are all able to bind to the N-10 peptide. 18B4 is the only antibody raised against the PSMGFR peptide that requires the 10 most N-terminal amino acids of the peptide. The color of the bars for each antibody in the ELISA graph are color coded to match the deductive cognate sequence, or a portion thereof, of that antibody. In addition, another set of antibodies was assayed by ELISA (FIG. 201). Of this set, B12, B2, B7, B9, 8C7F3, and H11 bound to the PSMGFR peptide, bound to the N-10 peptide, but not to the C-10 peptide (FIG. 201). Although these antibodies were raised against the N+20/C-27 peptide, all but one, 45C11, still bind to the PSMGFR peptide, albeit at the N-terminal portion of PSMGFR.

PSMGFR peptide [7] = target: B9; experiment: ELISA, peptide on plate (FIG. 201A)
Procedure: as §1, §2

C-10 peptide [8] = target: T2, C-10 peptide; experiment: ELISA, peptide on plate (FIG. 201C)
Procedure: as §1, §2

NME7AB = target: T4, NME7AB; experiment: ELISA, peptide on plate (FIG. 2A)
Procedure: FIGS. 2A-2I show results of ELISA assays. MUC1* peptides PSMGFR, PSMGFR minus 10 amino acids from the N-terminus aka N-10, or PSMGFR minus 10 amino acids from the C-terminus, aka C-10 are immobilized on the plate and the following are assayed for binding: NME7-AB (FIG. 2A), MNC2 monoclonal antibody (FIG. 2B), MNE6 monoclonal antibody (FIG. 2C), or dimeric NME1 (FIG. 2D). […] MUC1* peptides PSMGFR minus 10 amino acids from the N-terminus aka N-10, or PSMGFR minus 10 amino acids from the C-terminus, aka C-10, are immobilized on the plate and the following are assayed for binding: MNC3 (FIG. 2E) and MNC8 (FIG. 2F).

PSMGFR peptide [9] = target: B9; experiment: ELISA, peptide on plate (FIG. 9)
N-10 peptide [10] = target: T3, N-10 peptide; experiment: ELISA, peptide on plate (FIG. 9)
C-10 peptide [11] = target: T2, C-10 peptide; experiment: ELISA, peptide on plate (FIG. 9)
PSMGFR peptide [12] = target: B9; experiment: peptide binding, told in Western blot legend
N-10 peptide [13] = target: T3, N-10 peptide; experiment: ELISA, peptide on plate (FIG. 64)
N-10/C-5 peptide = target: T5, N-10/C-5 peptide; experiment: ELISA, peptide on plate (FIG. 69)
N-19 peptide = target: T6, N-19 peptide; experiment: ELISA, peptide on plate (FIG. 69)
N-26 peptide = target: T7, N-26 peptide; experiment: ELISA, peptide on plate (FIG. 69)
N-10 peptide [14] = target: T3, N-10 peptide; experiment: ELISA, peptide on plate (FIG. 69)
N-19/C-5 peptide = target: T8, N-19/C-5 peptide; experiment: ELISA, peptide on plate (FIG. 69)
N-30 peptide = target: T9, N-30 peptide; experiment: ELISA, peptide on plate (FIG. 69)

B1
binding result (N+9/C-9 peptide): no binding | binding result (C-10 peptide [1]): no binding | binding result (PSMGFR peptide [2]): binds | binding result (N-10 peptide [3]): binds

B2
binding result (C-10 peptide [4]): no binding | binding result (PSMGFR peptide [2]): binds | binding result (N-10 peptide [3]): binds

B3
EC50 (PSMGFR peptide [5]): ~333 nM

B4
binding result (N-10 peptide [6]): binds | binding result (PSMGFR peptide [7]): binds | binding result (C-10 peptide [8]): no binding

B5
binding result (N-10 peptide [6]): binds | binding result (PSMGFR peptide [7]): binds | binding result (C-10 peptide [8]): no binding

B6
binding result (N-10 peptide [6]): binds | binding result (PSMGFR peptide [7]): binds | binding result (C-10 peptide [8]): no binding

B7
binding result (N-10 peptide [6]): binds | binding result (PSMGFR peptide [7]): binds | binding result (C-10 peptide [8]): no binding

B8
binding result (N-10 peptide [6]): binds | binding result (PSMGFR peptide [7]): binds | binding result (C-10 peptide [8]): no binding

B9
binding result (NME7AB): binds

B10
binding result (PSMGFR peptide [9]): binds | binding result (N-10 peptide [10]): binds | binding result (C-10 peptide [11]): binds

B11
binding result (PSMGFR peptide [12]): binds | binding result (N+9/C-9 peptide): binds | binding result (N-10 peptide [13]): binds | binding result (C-10 peptide [4]): binds

B12
binding result (PSMGFR peptide [12]): binds | binding result (N+9/C-9 peptide): binds | binding result (N-10 peptide [13]): binds | binding result (C-10 peptide [4]): binds

B13
binding result (N-10/C-5 peptide): no binding | binding result (N-19 peptide): no binding | binding result (N-26 peptide): no binding | binding result (N-10 peptide [14]): no binding | binding result (N-19/C-5 peptide): no binding | binding result (N-30 peptide): no binding
